Results as given in paper PMC4995436, “Characterization of a novel low-temperature-active, alkaline and sucrose-tolerant invertase” (Scientific Reports, 2016).

Substrate: OC[C@H]1O[C@@](CO)(O[C@H]2O[C@H](CO)[C@@H](O)[C@H](O)[C@H]2O)[C@@H](O)[C@@H]1O
Assay: initial-rate kinetics, DNS reducing sugar assay, Michaelis-Menten fit
Format: biochemical, Bacillus sp. HJ14
Settings: 30 °C, McIlvaine buffer pH 8.0, 1.5-36.5 mM sucrose
Description: initial-rate kinetics, DNS reducing sugar assay, Michaelis-Menten fit on rInvHJ14 (InvHJ14)

B1: rInvHJ14 (InvHJ14) (Bacillus sp. HJ14) (protein)
chain: MTTTDAALRQKIADRIRNYEHLVKKDVYRQHFHLMPPVGLLNDPNGLIQWKGIYHVFYQWQPFKTGHGAKFWGHYTSTDLVNWQHEEAALAPSDWFDQNGCYSGSAFIDDGQMHVMYTGNVRDEQGNRETYQCLAVSEDGIHFQKKGVVATLPEGFTAHFRDPKVWKRNGQWYMVLGAQSLDLKGHLVLFTSDTLDNWTFQGTIAGSGKNGLDNFGYMWECPDLFELDGRDVLIVSPQGLEPDGLKYHNTHQSGYFVGTLDDHSYQYTHGAFEELDRGFDFYAQQTFLDESGRRLLIGWMGVPDQGEEHHPTISYQWIHCLTIPRELRLDEDGHLIQKPVSELQSMRTNEQEHVFHIKRSVHSIPVEDITSAEVFIDQIDTQKGFECCIRAAARIIYDKEEGKLTLERDRFEDRSKEVREAVIEELHDLHIFIDSSSIEIFVNGGREVFTARYFPSPGNKSISISGRNETKLKLKAWHLQREADQ
notes: pEASY-E2 vector, E. coli BL21 (DE3), Ni-NTA purified, approximately 58 kDa on SDS-PAGE
  Km: 62.9 mM
  Vmax: 772 µmol/min/mg
  kcat: 746 s⁻¹
  kcat/Km: 11900 M⁻¹ s⁻¹
